The target of the assay is Human calmodulin (human, UniProt P0DP23 1-149). In words: ITC. For orientation: In ITC the heat of successive injections is recorded.

B1: Human NaV1.9 C-tail (residues 1618 to 1766) (domain or fragment)
chain: LGEDDFDIFYEVWEKFDPEATQFIKYSALSDFADALPEPLRVAKPNKYQFLVMDLPMVSEDRLHCMDILFAFTARVLGGSDGLDSMKAMMEEKFMEANPLKKLYEPIVTTTKRKEEERGAAIIQKAFRKYMMKVTKGDQGDQNDLENGP
B1 registered a Kd of around 214 µM.

As a reminder, the Kd is the constant that tells how readily two partners part at equilibrium. High values mean weaker binding, low ones tighter binding.

Source of the values: article PMC12118636 (Science Advances, 2025).
